From IntAct's records for PubMed 25374563

B1: Tyrosine-protein kinase YwqD (Bacillus subtilis), P96716 (parent)
chain: MALRKNRGSRMQRNVIAMTEPKSLNSEQYRTIRTNIEFASVDRQMKSVMITSACPGEGKSTTAANLAVVFAQQGKKVLLIDADLRKPTVHTAFFLENTVGLTSVLLKKSSMEQAVQASNEKHLDVLTSGPIPPNPAELLSSKWMKELAYEACAAYDMVIFDTPPILAVADAQILGNVADGSVLVISSGKTEKEQAAKAKEALATCKSKLLGAIMNGKKLSKHSEYGYYGTKDNFMQK
partner: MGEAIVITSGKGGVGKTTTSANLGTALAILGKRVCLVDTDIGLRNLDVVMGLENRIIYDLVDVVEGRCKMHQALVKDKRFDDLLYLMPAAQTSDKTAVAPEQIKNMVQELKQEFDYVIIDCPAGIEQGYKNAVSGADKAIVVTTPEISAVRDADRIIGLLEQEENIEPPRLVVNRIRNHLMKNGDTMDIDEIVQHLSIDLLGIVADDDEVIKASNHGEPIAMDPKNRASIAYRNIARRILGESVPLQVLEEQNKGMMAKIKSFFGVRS

Variants of: B1
Conditions: with mind_bacsu minD

Row | Variant | effect of a mutation on the interaction
1 | MALRKNRGSRMQRNVIAMTEPKSLNSEQYRTIRTNIEFASVDRQMKSVMITSACPGEGKSTTAANLAVVFAQQGKKVLLIAADLRKPTVHTAFFLENTVGLTSVLLKKSSMEQAVQASNEKHLDVLTSGPIPPNPAELLSSKWMKELAYEACAAYDMVIFDTPPILAVADAQILGNVADGSVLVISSGKTEKEQAAKAKEALATCKSKLLGAIMNGKKLSKHSEYGYYGTKDNFMQK [D81A] | decreasing interaction strength
2 | MALRKNRGSRMQRNVIAMTEPKSLNSEQYRTIRTNIEFASVDRQMKSVMITSACPGEGMSTTAANLAVVFAQQGKKVLLIDADLRKPTVHTAFFLENTVGLTSVLLKKSSMEQAVQASNEKHLDVLTSGPIPPNPAELLSSKWMKELAYEACAAYDMVIFDTPPILAVADAQILGNVADGSVLVISSGKTEKEQAAKAKEALATCKSKLLGAIMNGKKLSKHSEYGYYGTKDNFMQK [K59M] | disrupting interaction strength
